Patent publication US12365732 (23ANDME, dated 2025)
Changes are numbered by the printed parent chain. Numbers in names are those of the source. One block for each binder: values may come before it.

Columns and labels:
[1] = target: T1, cy-CD96 (soluble, extracellular domain) (cynomolgus monkey, UniProt P40200 22-516 (human entry), biotinylated in Octet and blocking ELISA); assay: BLI (Octet), biotin-CD96 on SA, Fab analyte
T1 construct: the assays name only cy-CD96; also called biotinylated cy-CD96
T1 chain: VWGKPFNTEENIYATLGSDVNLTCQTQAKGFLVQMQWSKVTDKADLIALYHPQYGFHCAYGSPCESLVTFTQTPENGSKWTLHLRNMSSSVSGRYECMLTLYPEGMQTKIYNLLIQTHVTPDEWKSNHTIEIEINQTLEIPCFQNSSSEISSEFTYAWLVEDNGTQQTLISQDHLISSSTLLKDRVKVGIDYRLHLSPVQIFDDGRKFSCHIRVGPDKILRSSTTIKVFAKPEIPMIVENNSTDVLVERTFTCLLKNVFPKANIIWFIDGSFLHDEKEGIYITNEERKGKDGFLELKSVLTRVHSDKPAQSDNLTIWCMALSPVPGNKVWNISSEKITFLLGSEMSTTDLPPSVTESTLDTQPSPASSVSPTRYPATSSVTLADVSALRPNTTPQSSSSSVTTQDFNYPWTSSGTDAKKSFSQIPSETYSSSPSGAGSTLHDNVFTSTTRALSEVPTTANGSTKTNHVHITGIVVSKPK

[2] = target: T2, hu-CD96 (soluble, isoform 2 extracellular domain) (human, UniProt P40200 22-516, biotinylated in Octet and blocking ELISA); assay: BLI (Octet), biotin-CD96 on SA, Fab analyte
T2 construct: the assays name only hu-CD96; also called hCD96; biotinylated hu-CD96
T2 sequence: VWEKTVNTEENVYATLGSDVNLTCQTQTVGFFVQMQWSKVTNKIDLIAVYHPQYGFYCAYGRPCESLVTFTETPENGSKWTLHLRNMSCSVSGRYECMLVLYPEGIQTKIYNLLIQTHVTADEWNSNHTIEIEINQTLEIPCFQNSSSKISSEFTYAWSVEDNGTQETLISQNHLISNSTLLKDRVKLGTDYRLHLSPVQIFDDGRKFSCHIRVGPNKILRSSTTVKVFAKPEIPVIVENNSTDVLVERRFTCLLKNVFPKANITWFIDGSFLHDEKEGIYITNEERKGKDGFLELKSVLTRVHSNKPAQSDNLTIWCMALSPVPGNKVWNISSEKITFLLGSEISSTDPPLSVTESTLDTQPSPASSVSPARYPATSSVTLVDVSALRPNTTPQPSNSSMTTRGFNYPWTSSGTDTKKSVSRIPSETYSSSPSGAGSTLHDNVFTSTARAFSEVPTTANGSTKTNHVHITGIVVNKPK

[3] = target: T3, hu-CD96 Fc (human, biotinylated in Table 16); assay: SPR (Biacore), Fab
T3 construct: also called biotinylated hu-CD96-Fc

[4] = target: T4, cy-CD96 Fc (cynomolgus monkey, biotinylated in Table 16); assay: SPR (Biacore), Fab
T4 construct: also called biotinylated cy-CD96-Fc

[5] = target: T1, cy-CD96 (soluble, extracellular domain); assay: CD155 blocking ELISA
[6] = target: T2, hu-CD96 (soluble, isoform 2 …); assay: CD155 blocking ELISA
[7] = target: T3, hu-CD96 Fc; assay: SPR 37C, biotin-CD96-Fc captured, IgG analyte
Method: Briefly, a 1:4 dilution of Biotin CAPture Reagent (GE Healthcare) into HBS-EP buffer (0.01 M HEPES pH 7.4, 0.15 M NaCl, 3 mM EDTA, 0.005% Surfactant P20) was applied to the chip at 2 µL/min flow rate. For the kinetics measurements, 20 nM biotinylated hu-CD96-Fc and cy-CD96-Fc was captured at 10 µL/min to achieve ~50 response units in the second flow cell (FC2). FC1 was kept as a reference. Next, 4-fold serial dilutions of IgG in HBS-P buffer (0.01 M HEPES pH 7.4, 0.15 M NaCl, 0.005% surfactant P20) from low (3.125 nM) to high (200 nM) concentration were injected (flow rate: 10 µL/min) at 37° C. The sensorgram was recorded and subject to reference and buffer subtraction before evaluating by BIACORE® 8K Evaluation Software (version 1.1.1.7442). Association rates ($kon$) and dissociation rates ($koff$) were calculated using a simple one-to-one Langmuir binding model. The equilibrium dissociation constant (K_D) value was calculated as the ratio of $koff/kon$.

[8] = target: T5, hu-CD96 isoform 2 on CHO cells (human, UniProt P40200 22-585); assay: FACS, blocks 10 nM CD155-Fc-FLAG binding to CD96-CHO
T5 construct: also called CHO-CD96 (isoform 2); CD96-CHOs
T5 sequence: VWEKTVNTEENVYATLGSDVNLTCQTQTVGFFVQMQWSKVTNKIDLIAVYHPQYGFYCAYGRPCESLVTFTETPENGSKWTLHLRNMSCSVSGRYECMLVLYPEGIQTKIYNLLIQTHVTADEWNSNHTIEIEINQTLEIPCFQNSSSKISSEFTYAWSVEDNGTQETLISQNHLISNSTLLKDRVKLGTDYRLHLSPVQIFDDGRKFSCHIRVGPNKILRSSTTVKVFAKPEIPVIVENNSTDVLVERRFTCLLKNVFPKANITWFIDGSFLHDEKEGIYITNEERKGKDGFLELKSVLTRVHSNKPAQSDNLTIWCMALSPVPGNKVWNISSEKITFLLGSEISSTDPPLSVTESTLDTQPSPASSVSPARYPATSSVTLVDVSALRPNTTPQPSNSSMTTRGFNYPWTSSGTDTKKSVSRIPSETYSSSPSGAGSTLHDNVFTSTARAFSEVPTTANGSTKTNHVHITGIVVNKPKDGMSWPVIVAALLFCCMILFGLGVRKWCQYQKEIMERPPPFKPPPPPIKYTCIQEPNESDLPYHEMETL
Method: (§1) CHO cells stably expressing isoform 2 of hu-CD96 (Origene, catalog #RC221005) were incubated with anti-CD96 antibodies for 20 minutes at 4° C. The cells were washed, and then incubated with 10 nM human CD155-Fc-FLAG for 30 minutes at 4° C. Cells were washed, and then human CD155-Fc-FLAG binding was detected by incubation with anti-FLAG-APC (Columbia Biosciences, catalog #D3-1718-1MG) for 20 minutes at 4° C. Cell binding was analyzed by flow cytometry with a CytoFLEX (Beckman Coulter). CD155 binding is represented as median fluorescence intensity (MedFI).
(§2) As shown in Table 20 (below), the anti-CD96 antibodies, mAb1.v7.NGS8, mAb1.v7.NGS9, mAb1.v7.NGS10, mAb1.v7.NGS11, and h10G1 inhibited soluble hu-CD155 binding to CD96-expressing CHO cells dose-dependently and potently. The antibody NK92.39 (Fuchs et al., 2004; Biolegend catalog #338405) inhibited receptor binding similarly.

[9] = target: T5, hu-CD96 isoform 2 on CHO cells; assay: FACS, CD155-Fc-FLAG 10 nM, Ab 100 nM
Method: as §1, §2

[10] = target: T5, hu-CD96 isoform 2 on CHO cells; assay: FACS, CD155-Fc-FLAG 10 nM, Ab 20 nM
Method: as §1, §2

[11] = target: T5, hu-CD96 isoform 2 on CHO cells; assay: FACS, CD155-Fc-FLAG 10 nM, Ab 0.032 nM
Method: as §1, §2

[12] = target: T5, hu-CD96 isoform 2 on CHO cells; assay: FACS, CD155-Fc-FLAG 10 nM, Ab 4 nM
Method: as §1, §2

[13] = target: T5, hu-CD96 isoform 2 on CHO cells; assay: FACS, CD155-Fc-FLAG 10 nM, Ab 0.8 nM
Method: as §1, §2

[14] = target: T5, hu-CD96 isoform 2 on CHO cells; assay: FACS, CD155-Fc-FLAG 10 nM, Ab 0.0064 nM
Method: as §1, §2

[15] = target: T5, hu-CD96 isoform 2 on CHO cells; assay: FACS, CD155-Fc-FLAG 10 nM, Ab 0.16 nM
Method: as §1, §2

[16] = target: T6, hCD155 (Table 28) (human, UniProt P15151 21-343, limits assumed); assay: SPR 25C, biotin-CD226-His captured, steady state fitting
T6 sequence (looked up): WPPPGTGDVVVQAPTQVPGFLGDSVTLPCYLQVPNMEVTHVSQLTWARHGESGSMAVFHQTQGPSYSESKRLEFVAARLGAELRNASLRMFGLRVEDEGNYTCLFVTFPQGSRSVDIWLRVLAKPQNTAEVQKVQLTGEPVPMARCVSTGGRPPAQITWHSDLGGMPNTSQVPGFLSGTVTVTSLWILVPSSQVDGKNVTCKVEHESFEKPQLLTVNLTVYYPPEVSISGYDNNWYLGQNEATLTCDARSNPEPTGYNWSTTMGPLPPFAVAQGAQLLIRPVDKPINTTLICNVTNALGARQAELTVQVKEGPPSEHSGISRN
Method: To determine the binding affinity to hu-CD226 and cy-CD226 of mAb1.v7.NGS8, h10G1, hCD155 and anti-hCD226 antibody DX11 (Abcam, cat #Ab33397), SPR measurement with a BIACORE™ 8K instrument was performed. Briefly, a 1:4 dilution of Biotin CAPture Reagent (GE Healthcare) into HBS-EP buffer (0.01 M HEPES pH 7.4, 0.15 M NaCl, 3 mM EDTA, 0.005% Surfactant P20) was applied to the chip at 2 µL/min flow rate. For the kinetics measurements, 5 µg/ml of biotinylated hu-CD226 His tag (Sino biological, cat #10565-H08H) and cy-CD226 His tag (Arco biosystems, cat #DN1-052H9) was captured at 10 µL/min to achieve ~50 response units in the second flow cell (FC2). FC1 was kept as a reference. Next, 3-fold serial dilutions of IgG in HBS-P buffer (0.01 M HEPES pH 7.4, 0.15 M NaCl, 0.005% surfactant P20) from low (1.3 nM) to high (1000 nM) concentration were injected (flow rate: 30 µL/min) at 25° C. The sensorgram was recorded and subject to reference and buffer subtraction before evaluating by BIACORE® 8K Evaluation Software (version 1.1.1.7442). Association rates ($kon$) and dissociation rates ($koff$) were calculated using a simple one-to-one Langmuir binding model. The equilibrium dissociation constant (K_D) value was calculated as the ratio of $koff/kon$. […]

Kd [7]: 150 pM
koff [7]: 1.99e-05 s⁻¹
kon [7]: 129000 M⁻¹ s⁻¹
IC50 [8]: 760 pM
CD155-Fc binding (MedFI) [9]: 4180 MedFI
CD155-Fc binding (MedFI) [10]: 4290 MedFI
CD155-Fc binding (MedFI) [11]: 47800 MedFI
CD155-Fc binding (MedFI) [12]: 4960 MedFI
CD155-Fc binding (MedFI) [13]: 23600 MedFI
CD155-Fc binding (MedFI) [14]: 49200 MedFI
CD155-Fc binding (MedFI) [15]: 52900 MedFI
B2: mAb1.v7.NGS8 IgG (antibody, V domains shown)
VH: EVQLVQSGAEVKKPGASVKVSCKASGFTFTNNFMHWVRQAPGQGLEWIGMIHANSGITNINEKFKNRVTMTTDTSTSTAYMELRSLRSEDTAVYYCRSDGIYEGYFDYWGQGTLVTVSS
VL: DIQLTQSPSSLSASVGDRVTITCKASQNVGTAIVWYQQKPGKAPKVLIYSASTRYTGVPSRFSGSGSGTDFTLTISSLQPEDFATYYCQQYSSSPLTFGQGTKVEIKG
notes: human IgG1 N297G

Kd [16]: 161000 pM
B5: hu-CD226 His tag (receptor, human, UniProt Q15762 19-247, looked up)
chain: EEVLWHTSVPFAENMSLECVYPSMGILTQVEWFKIGTQQDSIAIFSPTHGMVIRKPYAERVYFLNSTMASNNMTLFFRNASEDDVGYYSCSLYTYPQGTWQKVIQVVQSDSFEAAVPSNSHIVSEPGKNVTLTCQPQMTWPVQAVRWEKIQPRQIDLLTYCNLVHGRNFTSKFPRQIVSNCSHGRWSVIVIPDVTVSDSGLYRCYLQASAGENETFVMRLTVAEGKTDN
modifications: biotinylated

The remaining lines, values behind:

B1: mAb1.v7.NGS9 Fab (Fab, V domains shown)
VH: B2 VH with I101V
VL: DIQLTQSPSSLSASVGDRVTITCKASQNVGTAIVWYQQKPGKAPKVLIYSASTRYTGVPSRFSGSGSGTDFTLTISSLQPEDFATYYCQQYSSSPLTFGQGTKVEIK
notes: also called W33F/P52aA/T97V
Kd [1]: 82000 pM
Kd [2]: 100 pM
Kd [3]: 5850 pM
koff [3]: 8.32e-05 s⁻¹
kon [3]: 14200 M⁻¹ s⁻¹
Kd [4]: 16700 pM
koff [4]: 0.000414 s⁻¹
kon [4]: 24800 M⁻¹ s⁻¹
IC50 [5]: 730 pM
IC50 [6]: 780 pM

B3: mAb1.v7.NGS10 Fab (Fab, V domains shown)
VH: B2 VH with M50F
VL: B1 VL
notes: Fab; also called W33F/M50F/P52aA/T97I
Kd [3]: 2100 pM
koff [3]: 2.6e-05 s⁻¹
kon [3]: 12100 M⁻¹ s⁻¹
Kd [4]: 30000 pM
koff [4]: 0.000343 s⁻¹
kon [4]: 11400 M⁻¹ s⁻¹
IC50 [5]: 840 pM
IC50 [6]: 540 pM

B4: mAb1.v7.NGS11 Fab (Fab, V domains shown)
VH: B2 VH with M50F, I101V
VL: B1 VL
notes: also called W33F/M50F/P52aA/T97V
Kd [3]: 2620 pM
koff [3]: 2.75e-05 s⁻¹
kon [3]: 10500 M⁻¹ s⁻¹
Kd [4]: 19100 pM
koff [4]: 0.000215 s⁻¹
kon [4]: 11200 M⁻¹ s⁻¹
IC50 [5]: 950 pM
IC50 [6]: 590 pM
